What was measured:
[1] = tested on: complete Freund's adjuvant (CFA)-induced chronic arthritis; experiment: CFA-induced chronic arthritis in rats, nociceptive response (vocalization test, Example 8); format: in vivo, rat; details: for nociceptive response (vocalization): arthritic rats, E3 1 mg/kg or 911 10 mg/kg i.v. D14+D19, indomethacin 3 mg/kg/day p.o. 10 days
Method: […]. Analgesic effects of E3 and 911 were evaluated by the measurement of nociceptive response. Anti-inflammatory effects were evaluated by paw volume, arthritis index (inflammation score), body and hindpaws weight. […].
(§1) Five groups of 10 animals (5-weeks old male Lewis rats-LEWIS Lew/Ico, from Charles River Laboratories—Belgium) each were included in this study: Group 1: non arthritic rats/saline (vehicle), i.v. bolus, n=10; Group 2: arthritic rats/saline (vehicle), i.v. bolus, n=10; Group 3: arthritic rats/Indomethacin 3 mg/kg, p.o daily over 10 days, n=10; […]; Group 5: arthritic rats/911, 10 mg/kg, i.v. bolus, n=10. The doses were expressed in terms of free active substance (mg/kg). E3 and 911 were extemporaneously prepared in saline from the stock solution to the desired concentration. […]. All diluted solutions (before i.v. injection) were sterilized using a sterile filter unit of 0.20.μm. pH and osmolarity values of diluted solutions were measured before each i.v. injection. Before the first i.v., osmolarity (mosm/L) for saline, E3, and 911 were 278, 269, and 308 respectively; pH for saline, E3, and 911 were 5.93, 6.76, 6.71 respectively. Before the second i.v., osmolarity (mosm/L) for saline, E3, and 911 were 280, 270, and 309 respectively; pH for saline, E3, and 911 were 5.86, 6.72, and 6.59 respectively.
(§2) E3 or 911 or saline were administered by i.v. bolus injection on Day 14 and Day 19 after arthritis induction in a coded and random order with a volume of 5 mL/kg. The non arthritic group was given by i.v. bolus injection of saline on Day 14 and Day 19 with a volume of 5 mL/kg. Indomethacin was extemporaneously prepared in 1% methylcellulose. Indomethacin was administered by oral route (p.o.) once daily over 10 days from Day 14 to Day 23 after arthritis induction in a coded and random order with a volume of 10 mL/kg.
On Day 0 (D 0), arthritis was induced in 70 rats by intradermal injection into the tail of 0.05 ml of a Mycobacterium butyricum suspension.
The nociceptive response was evaluated by gentle flexion of the right and left hindpaw repeatedly 2 times at intervals of 4 to 5 sec with a finger of the operator (arthritic rats). The intensity of the level of vocalization was recorded for each animal for each hindpaw (2 times: on right hindpaw: s1 and s3; 2 times: on left hindpaw: s2 and s4). This evaluation was performed at the following times (after induction of arthritis): Day 14 (before i.v. bolus or p.o. administration); Day 18 (before the second i.v. bolus injection or 1 hr after p.o. administration); and Day 24 (5 days after the last i.v. bolus injection or 24 h after the last p.o. administration). All measurements were performed between 9:00 and 12:00 am except at D 14 (7:30-9:00 am) and D 24 (7:30-9:00 am).
(§3) All results were reported as Mean ±S.E.M. of 10 rats in each group at each time point. Paw volume was expressed in ml calculated from the mean value of the right and left paw volume. Arthritis index was calculated from the sum of the score obtained for each of the 4 paws. The nociceptive response was evaluated by the intensity of the level of vocalization recorded for each animal (mean of 4 values: 2 times/paw) in mV. The percentage inhibition of the nociceptive response was calculated from the mean value of the vehicle-treated arthritic group [(mean value of vehicle-treated arthritic group−mean value of treated arthritic group/mean value of vehicle-treated arthritic group)*100]. Body weight was expressed in grams. Hindpaws (left and right) weight was expressed in grams. Cytokine levels (IL-6, IL-1β, TNF-α and TGF-β1) of each hind paw was expressed in pg/ml. Circulating levels of TGF-β1 was expressed in pg/ml. Radiological index for each parameter (demineralization, erosions, periostal reaction, soft tissue damage, space joint, osteogenesis deformity) and total radiological index (total score) were calculated from the sum of the scores obtained for each parameter. […]

[2] = tested on: complete Freund's adjuvant (CFA)-induced chronic arthritis; experiment: CFA arthritis rats, arthritis index (inflammation score); format: in vivo, rat; details: for change of arthritis index compared to vehicle-treated arthritic group: E3 1 mg/kg or 911 10 mg/kg i.v. D14+D19, indomethacin 3 mg/kg/day p.o.; for arthritis index (score): arthritic rats
Method: as §1, §2
Arthritis index was evaluated using an inflammation score for each hind and forepaw (arthritic rats): Score 0: normal aspect; Score 1: erythema; Score 2: erythema with slight edema; Score 3: strong inflammation without ankylosis; Score 4: ankylosis. This evaluation was performed at the following times (after induction of arthritis): Day 14 (before i.v. bolus or p.o. administration); and Day 24 (5 days after the last i.v. bolus injection or 24 h after the last p.o. administration). All measurements were performed between 2:00 and 3:00 pm (D 14), 8:00 and 9:00 am (D 24). All the data were collected and stored by the WinDas software.
as §3, with “parameter. The inter-group significances of the deviations between the values of vehicle-treated group (arthritic rats) and vehicle-treated group (non arthritic rats) were assessed by the Student t test or Mann-Whitney Rank Sum Test when equal variance or normality test failed. The inter-group significances of the deviations between the values of vehicle-treated group (arthritic rats) and E3- and 911- and Indomethacin-treated groups were assessed by the 1-way analysis of variance ANOVA followed by the non-paired Dunnett t test.” for “parameter.”

[3] = E3 1 mg/kg or 911 10 mg/kg i.v. D14+D19, indomethacin 3 mg/kg/day p.o., D24
[4] = E3 1 mg/kg or 911 10 mg/kg i.v., indomethacin 3 mg/kg/day p.o., D14
[5] = E3 1 mg/kg or 911 10 mg/kg i.v., indomethacin 3 mg/kg/day p.o., D18
[6] = E3 1 mg/kg i.v., 911 10 mg/kg i.v., D14+D19

Row | Molecule | % inhibition of nociceptive response vs vehicle-treated arthritic group [1, 3] [%] | decrease of nociceptive response vs vehicle-treated arthritic group [1, 3] [mV] | % inhibition of nociceptive response vs vehicle-treated arthritic group [1, 4] [%] | % inhibition of nociceptive response vs vehicle-treated arthritic group [1, 5] [%] | decrease of nociceptive response vs vehicle-treated arthritic group [1, 5] | nociceptive response (vocalization) ([1]; D14 (before dosing)) [mV] | nociceptive response (vocalization) ([1]; D18) [mV] | nociceptive response (vocalization) ([1]; D24) [mV] | change of arthritis index compared to vehicle-treated arthritic group ([2]; D24) | arthritis index (score) ([2]; D14 (before dosing)) | analgesic effects in arthritis model (conclusion) [1, 6] | anti-inflammatory effects in arthritis model (conclusion) [2, 6] | arthritis index (score) ([2]; E3 1 mg/kg or 911 10 mg/kg i.v. D14+D19, indomethacin 3 mg/kg/day p.o. 10 days, D24)
1 | COc1ccc2c(c1)c(CC(=O)O)c(C)n2C(=O)c1ccc(Cl)cc1 [Indomethacin, reference compound] | 74 | ~−4353 | 0 | 71 | about −3768 mV | 4386±235 | 1511±398 | 1552±508 | about −8.0 | 8.7±0.6 |  |  | 
2 | E3: humanized, affinity matured anti-NGF antagonist antibody; variable regions SEQ ID NO:1 and 2; human IgG2a (A330P331 to S330S331), kappa (antibody, V domains shown, human IgG2a constant (A330S/P331S) and kappa constant missing) VH: QVQLQESGPGLVKPSETLSLTCTVSGFSLIGYDLNWIRQPPGKGLEWIGIIWGDGTTDYNSAVKSRVTISKDTSKNQFSLKLSSVTAADTAVYYCARGGYWYATSYYFDYWGQGTLVTVS VL: DIQMTQSPSSLSASVGDRVTITCRASQSISNNLNWYQQKPGKAPKLLIYYTSRFHSGVPSRFSGSGSGTDFTFTISSLQPEDIATYYCQQEHTLPYTFGQGTKLEIKRT | 100 | ~−5905 | 0 | 79 | about −4167 mV | 4644±367 | 1112±401 | 0±0 | did not affect the arthritis index | 10.2±0.4 | strong analgesic effects | did not show significant anti-inflammatory effects | 11.4±0.4

Reference: US20080182978A1, “ANTI-NGF ANTIBODIES AND METHODS USING SAME” (RINAT NEUROSCIENCE CORP, priority 2002, published 2008)
